1 substance from article PMC11522927 can be followed below.

The target in this test is VirC^4A (HMG synthase VirC, Cys114Ala/Gln334Ala/Arg335Ala/Arg338Ala) (Streptomyces virginiae). The experiment in a line: SEC-SAXS.

With “VirC^4A (HMG synthase VirC, Cys114Ala/Gln334Ala/Arg335Ala/Arg338Ala) (enzyme)”, the stoichiometry N is 2.
